Experimental data published in patent US10500249B2, “Compositions and methods for preventing or treating diseases, conditions, or processes characterized by aberrant fibroblast proliferation and extracellular matrix deposition” (MOERAE MATRIX, INC., priority 2014, dated 2019).

How the values were obtained:
Assay in all cases: Kinase Profiling Assay
Type in all cases: biochemical
Conditions in all cases: 100 μM
[1] = target: T1, MSK2 (h) (Homo sapiens, UniProt O75676)
T1 construct: purchased Millipore
T1 sequence (O75676 whole entry): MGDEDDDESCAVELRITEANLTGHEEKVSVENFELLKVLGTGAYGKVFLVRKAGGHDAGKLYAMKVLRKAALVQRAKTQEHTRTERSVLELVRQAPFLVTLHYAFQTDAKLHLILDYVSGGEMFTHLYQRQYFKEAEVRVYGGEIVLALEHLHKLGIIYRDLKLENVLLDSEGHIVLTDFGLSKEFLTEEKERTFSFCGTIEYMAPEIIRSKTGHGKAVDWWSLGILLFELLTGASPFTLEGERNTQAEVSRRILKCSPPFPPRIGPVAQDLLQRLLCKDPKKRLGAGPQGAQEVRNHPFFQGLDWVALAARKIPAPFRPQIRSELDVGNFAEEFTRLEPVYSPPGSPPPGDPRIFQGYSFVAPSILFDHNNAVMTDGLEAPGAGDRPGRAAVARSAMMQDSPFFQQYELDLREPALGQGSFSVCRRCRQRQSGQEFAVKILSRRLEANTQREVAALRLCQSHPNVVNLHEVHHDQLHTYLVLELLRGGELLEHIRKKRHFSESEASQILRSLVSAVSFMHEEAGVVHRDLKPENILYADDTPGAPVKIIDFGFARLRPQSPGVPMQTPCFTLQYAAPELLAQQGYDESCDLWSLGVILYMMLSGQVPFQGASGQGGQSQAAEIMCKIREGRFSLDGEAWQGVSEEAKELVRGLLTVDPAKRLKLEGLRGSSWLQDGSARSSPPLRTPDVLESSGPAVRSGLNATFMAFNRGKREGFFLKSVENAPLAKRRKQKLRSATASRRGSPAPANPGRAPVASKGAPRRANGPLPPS
How it was run: (§1)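 Each kinase activity was measured in duplicate. Phosphorylation of a positively charged substrate with radiolabeled phosphate from ATP was captured on a negatively charged filter, counted by scintillation and expressed relative to a 100% activity control. MK2 inhibitory peptides were screened for specificity across 266 human kinases.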

[2] = target: T2, SAPK3 (h) (Homo sapiens, UniProt P53778)
T2 sequence (P53778 1-367): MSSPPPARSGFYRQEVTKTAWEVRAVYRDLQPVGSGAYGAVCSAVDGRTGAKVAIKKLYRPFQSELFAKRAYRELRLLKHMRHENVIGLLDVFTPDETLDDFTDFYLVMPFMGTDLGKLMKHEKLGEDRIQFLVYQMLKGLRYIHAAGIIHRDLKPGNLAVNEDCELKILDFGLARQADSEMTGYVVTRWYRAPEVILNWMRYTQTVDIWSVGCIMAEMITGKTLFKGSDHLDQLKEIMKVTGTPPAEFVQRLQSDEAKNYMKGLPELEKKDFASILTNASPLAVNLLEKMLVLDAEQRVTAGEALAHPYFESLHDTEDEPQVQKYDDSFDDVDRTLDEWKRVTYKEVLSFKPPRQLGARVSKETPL
How it was run: as §1

[3] = target: T3, GRK6 (h) (Homo sapiens, UniProt P43250)
T3 construct: purchased Millipore
T3 sequence (P43250 whole entry): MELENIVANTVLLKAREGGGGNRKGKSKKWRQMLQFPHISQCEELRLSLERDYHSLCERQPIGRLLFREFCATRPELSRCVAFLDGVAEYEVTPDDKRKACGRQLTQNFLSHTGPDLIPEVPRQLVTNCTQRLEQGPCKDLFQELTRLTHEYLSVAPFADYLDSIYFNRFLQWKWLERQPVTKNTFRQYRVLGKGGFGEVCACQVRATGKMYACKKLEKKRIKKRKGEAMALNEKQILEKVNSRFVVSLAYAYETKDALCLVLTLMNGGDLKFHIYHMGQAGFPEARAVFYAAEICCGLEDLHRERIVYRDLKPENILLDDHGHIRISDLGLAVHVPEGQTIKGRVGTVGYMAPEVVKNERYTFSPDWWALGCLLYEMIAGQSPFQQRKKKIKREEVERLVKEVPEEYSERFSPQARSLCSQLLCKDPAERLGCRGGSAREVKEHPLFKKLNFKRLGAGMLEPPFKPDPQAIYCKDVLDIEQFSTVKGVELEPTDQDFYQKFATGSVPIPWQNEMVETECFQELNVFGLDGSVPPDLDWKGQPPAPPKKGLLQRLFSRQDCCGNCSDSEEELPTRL
How it was run: as §1

[4] = target: T4, PKBγ (h) (Homo sapiens, UniProt Q9Y243)
T4 construct: purchased Millipore
T4 sequence (Q9Y243 whole entry): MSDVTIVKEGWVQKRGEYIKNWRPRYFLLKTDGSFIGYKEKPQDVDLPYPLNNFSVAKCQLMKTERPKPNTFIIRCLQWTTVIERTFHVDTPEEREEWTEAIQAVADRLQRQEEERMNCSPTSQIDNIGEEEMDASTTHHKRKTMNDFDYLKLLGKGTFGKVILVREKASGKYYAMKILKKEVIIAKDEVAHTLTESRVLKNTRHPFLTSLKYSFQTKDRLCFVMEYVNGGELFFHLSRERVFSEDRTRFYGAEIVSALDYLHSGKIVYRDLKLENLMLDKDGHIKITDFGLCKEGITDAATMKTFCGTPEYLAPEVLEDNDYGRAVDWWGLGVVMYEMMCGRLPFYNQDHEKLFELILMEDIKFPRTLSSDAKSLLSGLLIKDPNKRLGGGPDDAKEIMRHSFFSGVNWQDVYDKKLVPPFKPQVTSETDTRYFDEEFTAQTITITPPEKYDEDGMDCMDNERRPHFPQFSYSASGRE
How it was run: as §1

[5] = target: MAPKAP-K2 (h) (Homo sapiens, UniProt P49137)
Sequence of MAPKAP-K2 (h) (P49137 whole entry): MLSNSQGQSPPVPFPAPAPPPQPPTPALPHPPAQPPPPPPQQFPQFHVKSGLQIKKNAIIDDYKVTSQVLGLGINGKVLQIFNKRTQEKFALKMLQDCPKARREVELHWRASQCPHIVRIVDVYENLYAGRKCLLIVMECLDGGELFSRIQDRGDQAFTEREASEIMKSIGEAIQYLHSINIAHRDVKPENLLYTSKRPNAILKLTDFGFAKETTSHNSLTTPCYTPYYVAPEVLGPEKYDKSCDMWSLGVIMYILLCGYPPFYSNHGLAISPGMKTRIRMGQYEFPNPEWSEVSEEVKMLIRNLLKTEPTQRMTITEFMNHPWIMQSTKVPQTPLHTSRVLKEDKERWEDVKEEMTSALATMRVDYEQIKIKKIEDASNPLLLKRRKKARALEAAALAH
How it was run: as §1

[6] = target: T5, PKCβII (h) (Homo sapiens, UniProt P05771)
T5 construct: purchased Millipore
T5 sequence (P05771 1-673 isoform P05771-2): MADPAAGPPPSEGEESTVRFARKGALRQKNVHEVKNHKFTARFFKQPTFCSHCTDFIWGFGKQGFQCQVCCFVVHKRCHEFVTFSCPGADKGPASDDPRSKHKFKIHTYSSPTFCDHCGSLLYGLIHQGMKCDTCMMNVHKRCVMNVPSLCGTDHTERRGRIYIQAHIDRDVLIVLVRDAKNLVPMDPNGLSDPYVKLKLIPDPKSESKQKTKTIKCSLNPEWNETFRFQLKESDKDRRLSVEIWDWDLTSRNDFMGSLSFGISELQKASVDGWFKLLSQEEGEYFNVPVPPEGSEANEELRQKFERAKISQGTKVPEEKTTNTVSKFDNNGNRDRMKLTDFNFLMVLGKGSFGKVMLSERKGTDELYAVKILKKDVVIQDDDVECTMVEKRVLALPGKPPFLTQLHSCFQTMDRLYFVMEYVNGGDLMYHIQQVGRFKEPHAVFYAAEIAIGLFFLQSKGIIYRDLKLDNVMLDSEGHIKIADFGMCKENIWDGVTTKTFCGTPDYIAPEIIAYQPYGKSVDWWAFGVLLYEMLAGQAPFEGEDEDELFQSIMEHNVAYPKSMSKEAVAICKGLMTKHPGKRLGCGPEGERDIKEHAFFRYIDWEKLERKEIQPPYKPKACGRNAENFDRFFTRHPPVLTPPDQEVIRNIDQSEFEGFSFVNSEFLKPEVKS
How it was run: as §1

[7] = target: T6, CHK2 (h) (Homo sapiens, UniProt O96017)
T6 construct: purchased Millipore
How it was run: as §1

[8] = target: PRK2 (h) (Homo sapiens, UniProt Q16513)
Sequence of PRK2 (h) (Q16513 whole entry): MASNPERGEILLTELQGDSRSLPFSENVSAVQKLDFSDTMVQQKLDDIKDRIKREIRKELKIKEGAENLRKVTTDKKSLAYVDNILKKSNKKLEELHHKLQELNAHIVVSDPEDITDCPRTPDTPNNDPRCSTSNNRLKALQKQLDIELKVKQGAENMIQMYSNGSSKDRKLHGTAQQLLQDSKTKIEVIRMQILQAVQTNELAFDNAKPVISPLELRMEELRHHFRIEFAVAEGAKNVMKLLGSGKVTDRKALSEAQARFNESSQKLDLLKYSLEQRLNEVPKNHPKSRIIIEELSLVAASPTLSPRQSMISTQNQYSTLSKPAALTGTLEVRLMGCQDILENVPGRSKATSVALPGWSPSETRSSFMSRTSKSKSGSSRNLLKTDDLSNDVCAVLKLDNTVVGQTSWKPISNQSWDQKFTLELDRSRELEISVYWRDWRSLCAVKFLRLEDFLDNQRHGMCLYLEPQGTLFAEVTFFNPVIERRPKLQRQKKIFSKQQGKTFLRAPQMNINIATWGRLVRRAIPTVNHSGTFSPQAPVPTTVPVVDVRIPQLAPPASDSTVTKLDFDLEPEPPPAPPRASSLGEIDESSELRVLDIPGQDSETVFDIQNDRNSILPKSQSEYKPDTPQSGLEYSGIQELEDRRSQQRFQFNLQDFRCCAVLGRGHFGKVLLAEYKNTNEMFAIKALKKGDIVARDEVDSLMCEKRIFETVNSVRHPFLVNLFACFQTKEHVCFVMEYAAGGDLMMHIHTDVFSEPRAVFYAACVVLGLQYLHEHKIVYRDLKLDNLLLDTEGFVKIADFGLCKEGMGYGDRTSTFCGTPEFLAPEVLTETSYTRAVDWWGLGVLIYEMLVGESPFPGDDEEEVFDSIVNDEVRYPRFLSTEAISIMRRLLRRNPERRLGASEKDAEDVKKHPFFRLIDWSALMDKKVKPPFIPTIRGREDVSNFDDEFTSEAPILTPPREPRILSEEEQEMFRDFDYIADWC
How it was run: as §1

[9] = target: Fms(Y969C) (h) (Homo sapiens, UniProt P07333, Y969C)
How it was run: as §1

[10] = target: T7, GCK (h) (Homo sapiens, UniProt Q12851)
T7 construct: purchased Millipore
T7 sequence (Q12851 1-820): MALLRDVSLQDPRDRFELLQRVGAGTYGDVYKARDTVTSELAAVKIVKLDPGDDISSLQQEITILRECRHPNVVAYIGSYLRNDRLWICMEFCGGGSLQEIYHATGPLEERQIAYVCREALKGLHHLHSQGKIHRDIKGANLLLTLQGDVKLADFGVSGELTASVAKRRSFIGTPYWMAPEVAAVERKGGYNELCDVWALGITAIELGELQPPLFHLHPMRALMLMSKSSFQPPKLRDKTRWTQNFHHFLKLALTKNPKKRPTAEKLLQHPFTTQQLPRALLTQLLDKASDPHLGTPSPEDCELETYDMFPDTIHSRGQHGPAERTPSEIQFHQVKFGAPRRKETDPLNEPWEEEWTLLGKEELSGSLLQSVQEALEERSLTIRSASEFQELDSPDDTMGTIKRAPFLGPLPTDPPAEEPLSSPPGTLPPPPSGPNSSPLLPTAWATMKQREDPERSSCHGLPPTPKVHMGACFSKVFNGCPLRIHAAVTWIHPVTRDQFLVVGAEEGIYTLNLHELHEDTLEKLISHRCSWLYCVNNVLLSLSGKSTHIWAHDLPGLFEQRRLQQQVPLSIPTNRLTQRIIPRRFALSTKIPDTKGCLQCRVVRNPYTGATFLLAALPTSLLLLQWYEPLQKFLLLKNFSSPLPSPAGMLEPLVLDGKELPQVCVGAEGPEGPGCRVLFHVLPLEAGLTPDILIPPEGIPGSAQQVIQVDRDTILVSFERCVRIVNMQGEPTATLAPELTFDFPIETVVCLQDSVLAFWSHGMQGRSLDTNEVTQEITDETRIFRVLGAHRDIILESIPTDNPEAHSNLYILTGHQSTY
How it was run: as §1

[11] = target: T8, DAPK2 (h) (Homo sapiens, UniProt Q9UIK4)
T8 construct: purchased Millipore
T8 sequence (Q9UIK4 whole entry): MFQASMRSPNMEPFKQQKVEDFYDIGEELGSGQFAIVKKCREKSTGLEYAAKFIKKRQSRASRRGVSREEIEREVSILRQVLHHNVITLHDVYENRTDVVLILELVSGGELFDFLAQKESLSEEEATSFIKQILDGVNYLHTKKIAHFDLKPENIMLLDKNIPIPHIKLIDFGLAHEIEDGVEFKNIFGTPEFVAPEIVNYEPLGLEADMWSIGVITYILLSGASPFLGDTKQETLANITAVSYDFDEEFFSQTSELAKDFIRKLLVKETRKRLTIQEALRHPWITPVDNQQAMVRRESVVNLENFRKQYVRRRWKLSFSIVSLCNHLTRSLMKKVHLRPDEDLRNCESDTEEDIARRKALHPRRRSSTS
How it was run: as §1

[12] = target: T9, PAK4 (h) (Homo sapiens, UniProt O96013)
T9 construct: purchased Millipore
T9 sequence (O96013 whole entry): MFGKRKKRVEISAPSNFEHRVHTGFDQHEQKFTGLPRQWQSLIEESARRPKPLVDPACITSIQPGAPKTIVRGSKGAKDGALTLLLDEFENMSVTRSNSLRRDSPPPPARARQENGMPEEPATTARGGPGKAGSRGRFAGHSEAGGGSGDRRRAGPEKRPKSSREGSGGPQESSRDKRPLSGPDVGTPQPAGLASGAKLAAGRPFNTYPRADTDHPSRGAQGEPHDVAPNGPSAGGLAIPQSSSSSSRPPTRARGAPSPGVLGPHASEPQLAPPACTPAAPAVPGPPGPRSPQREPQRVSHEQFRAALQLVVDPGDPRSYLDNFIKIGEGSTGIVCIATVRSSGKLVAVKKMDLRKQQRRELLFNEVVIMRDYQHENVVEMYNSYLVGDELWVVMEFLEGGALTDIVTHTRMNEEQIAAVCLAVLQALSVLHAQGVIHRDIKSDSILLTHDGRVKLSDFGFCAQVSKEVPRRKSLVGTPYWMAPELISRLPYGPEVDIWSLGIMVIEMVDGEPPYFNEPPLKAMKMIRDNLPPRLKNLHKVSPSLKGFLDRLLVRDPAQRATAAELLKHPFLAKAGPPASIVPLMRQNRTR
How it was run: as §1

[13] = target: T10, SGK2 (h) (Homo sapiens, UniProt Q9HBY8)
T10 sequence (Q9HBY8 1-367): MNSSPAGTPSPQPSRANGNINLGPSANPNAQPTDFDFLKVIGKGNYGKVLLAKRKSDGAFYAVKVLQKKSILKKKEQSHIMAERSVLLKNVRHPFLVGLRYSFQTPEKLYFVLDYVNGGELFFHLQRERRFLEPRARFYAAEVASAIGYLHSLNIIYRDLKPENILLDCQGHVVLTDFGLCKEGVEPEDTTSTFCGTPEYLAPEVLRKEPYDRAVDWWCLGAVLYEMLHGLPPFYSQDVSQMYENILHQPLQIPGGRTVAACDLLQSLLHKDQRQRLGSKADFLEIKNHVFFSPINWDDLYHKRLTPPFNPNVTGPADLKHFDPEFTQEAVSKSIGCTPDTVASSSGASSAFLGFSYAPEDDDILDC
How it was run: as §1

[14] = target: RIPK2 (h) (Homo sapiens, UniProt O43353)
How it was run: as §1

[15] = target: SRPK2 (h) (Homo sapiens, UniProt P78362)
How it was run: as §1

Sequence | % activity [1] | % activity [2] | % activity [3] | % activity [4] | % activity [5] | % activity [6] | % activity [7] | % activity [8] | % activity [9] | % activity [10] | % activity [11] | % activity [12] | % activity [13] | % activity [14] | % activity [15]
FAKLAARLYRKALARQLGVAA [MMI-0300] | 56% | 84% | 147% | 20% | 5% | 82% | 66% | 33% | 72% | 70% | 32% | 94% | 56% | 97% | –
HRRIKAWLKKIKALARQLGVAA (Mammalian) [MMI-0500] | 14% | 24% | 174% | 20% | 9% | 3% | 13% | 7% | – | 30% | 3% | 86% | −1% | 30% | 80%
KAFAKLAARLYRKALARQLGVAA [MMI-0400] | 52% | 79% | 141% | 41% | 5% | 75% | 54% | 27% | 91% | 66% | 16% | 89% | 98% | 98% | 97%
YARAAARQARAKALNRQLGVA (Mammalian) [MMI-0200] | 88% | 97% | 132% | – | 35% | 100% | – | 74% | 88% | 99% | 92% | 98% | – | 98% | 100%
